Assay results published in doi:10.1101/842088.
Where two headings read alike, the source gives them in different places.

Experiments:
Experiment in all cases: fluorescence polarization
NS3h WT (T7 Shuffle) [1] = molecular target: T1, NS3h WT (T7 Shuffle) (dengue virus 4, UniProt P09866 1646-2092)
NS3h WT (T7 Shuffle) [2] = molecular target: T1, NS3h WT (T7 Shuffle); remark: listed apart in the source
NS3h WT = NS3h WT (dengue virus 4, UniProt P09866 1646-2092)
Chain of NS3h WT (P09866 1646-2092): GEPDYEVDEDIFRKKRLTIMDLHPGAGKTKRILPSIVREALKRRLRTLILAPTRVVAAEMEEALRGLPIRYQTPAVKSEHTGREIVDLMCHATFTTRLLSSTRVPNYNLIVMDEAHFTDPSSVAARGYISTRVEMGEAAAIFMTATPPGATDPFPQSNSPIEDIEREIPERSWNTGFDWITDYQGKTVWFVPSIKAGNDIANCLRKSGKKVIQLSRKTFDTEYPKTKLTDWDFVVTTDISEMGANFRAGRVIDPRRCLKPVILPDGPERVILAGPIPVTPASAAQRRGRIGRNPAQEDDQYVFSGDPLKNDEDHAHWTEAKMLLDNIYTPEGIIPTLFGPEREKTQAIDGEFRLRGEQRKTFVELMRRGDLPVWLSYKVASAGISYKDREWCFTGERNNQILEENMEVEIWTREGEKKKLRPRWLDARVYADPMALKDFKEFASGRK

T1 sequence (P09866 1646-2092): as above

Binder: AGUAA (ssRNA, 5'-diphosphate (pp (so in the source))) [ppAGUAA Alexa-488 RNA oligo]
- Kd (NS3h WT (T7 Shuffle) [1]): 3.4 ± 1.4 µM
- Kd (NS3h WT (T7 Shuffle) [2]): 4.5 ± 1.5 µM
- Kd (NS3h WT): 1.9 ± 0.8 µM
